Results taken from patent publication US8357515.

System: LAP-MMP IL-4

Sequence of MMP-1, recombinant (P03956 100-469): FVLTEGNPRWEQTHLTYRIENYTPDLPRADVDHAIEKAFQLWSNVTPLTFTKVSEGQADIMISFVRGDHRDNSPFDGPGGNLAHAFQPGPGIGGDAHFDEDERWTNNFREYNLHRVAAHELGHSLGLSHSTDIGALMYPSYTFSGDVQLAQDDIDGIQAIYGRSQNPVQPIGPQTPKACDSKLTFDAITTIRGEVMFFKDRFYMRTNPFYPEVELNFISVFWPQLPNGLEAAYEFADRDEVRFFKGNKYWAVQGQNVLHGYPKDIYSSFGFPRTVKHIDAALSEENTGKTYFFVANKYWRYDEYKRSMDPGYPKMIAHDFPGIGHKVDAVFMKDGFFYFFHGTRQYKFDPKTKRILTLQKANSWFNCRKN

In the case of MMP-1, recombinant, the “cleavage of the fusion protein in 293T supernatant after overnight incubation at 37 C, Western blot probed with anti-IL-4 antibody” value was “LAP-MMP IL-4 is only cleaved by MMP-1”.
